Tests used:
[1] = test system: HIV-1; conditions: p24 antigen days 3 to 10; peptides 0.05 to 50 nmoles/ml, hCG 0.01 to 1,000 IU, native β-hCG 100 to 1,000 μg
Procedure: Sequences of the peptides are as follows:
HIV-1 infected cells were treated with the above preparations and the virus was measured.

[2] = test system: hematopoietic progenitor cells; experiment: Hematopoietic progenitor colony assays (CFU-MIX, BFU-e, CFU-GM); assay type: cell-based; conditions: bone marrow and cord blood; hCG 200 IU/ml, peptides and subunits 100 μg/ml; 10 days
Source text: Hematopoietic progenitor cells (2×10^5 cell/ml) were isolated from normal bone marrow and cord blood and seeded in methylcellulose. […] Aggregates containing more than 50 cells after 10 days of culture were counted as colonies.

[3] = test system: Kaposi's Sarcoma; conditions: literature; cited from earlier work
[4] = test system: HIV-1; conditions: higher doses increased viral production; cited from earlier work
[5] = test system: KS Y-1 or KS-SLK cells; experiment: KS clonogenic assay; assay type: cell-based, human; conditions: 2 KS cell lines; peptides 50 nmoles/ml, CR127 2 nmoles/ml; 10 days
Procedure: Briefly, the KS Y-1 cells were obtained from mononuclear cells isolated from pleural effusion of an AIDS patient with KS involving the lungs. After the depletion of T lymphocytes, monocytes/macrophages and fibroblasts by the cytotoxicity method, using monoclonal antibodies against CD2, CD3, CD4, CD8, CD10 and CD14 membrane antigens and baby rabbit complement, the cells were cultured in the absence of exogenous growth factors to select for transformed cells.

B1: partially purified native β-hCG (NβhCG): partially purified native β-hCG dissociated from hCG, Sigma (protein, UniProt P0DN86 21-165, looked up)
Choriogonadotropin subunit …: SKEPLRPRCRPINATLAVEKEGCPVCITVNTTICAGYCPTMTRVLQGVLPALPQVVCNYRDVRFESIRLPGCPRGVNPVVSYAVALSCQCALCRRSTTDCGGPKDHPLTCDDPRFQDSSSSKAPPPSLPSPSRLPGPSDTPILPQ
- inhibition of HIV-1 infection/replication in acutely infected cells [1]: active
- growth of hematopoietic progenitors (colonies) [2]: directly promoted

B2: β-hCG: β-subunit of hCG as reported in the literature (protein, UniProt P0DN86 21-165, looked up)
Choriogonadotropin subunit …: B1 Choriogonadotropin subunit …
- efficacy in the treatment of Kaposi's Sarcoma [3]: efficacious
- doses reducing HIV production in monocytes [4]: ≤ 10 µg/mL

B3: recombinant β-hCG: purified recombinant β-chain of hCG (protein, UniProt P0DN86 21-165, looked up)
Choriogonadotropin subunit …: B1 Choriogonadotropin subunit …
- anti-KS effect in clonogenic assays (number of colonies) [5]: no anti-KS effect
- inhibition of HIV-1 infection/replication in acutely infected cells [1]: not to be active
